For 15 variants, response results are on record in paper PMC6477152 (2019).

B1: FIP200ΔN1115:Luciferase [human] / GST:NDP52 [human] (parent complex)
chain 1: ENYQVGLAELRTLMTIEKDQCISELISRHEEESNILKAELNKVTSLHNQAFEIEKNLKEQIIELQSKLDSELSALERQKDEKITQQEEKYEAIIQNLEKDRQKLVSSQEQDREQLIQKLNCEKDEAIQTALKEFKLEREVVEKELLEKVKHLENQIAKSPAIDSTRGDSSSLVAELQEKLQEEKAKFLEQLEEQEKRKNEEMQNVRTSLIAEQQTNFNTVLTREKMRKENIINDLSDKLKSTMQQQERDKDLIESLSEDRARLLEEKKKLEEEVSKLRSSSFVPSPYVATAPELYGACAPELPGESDRSAVETADEGRVDSAMETSMMSVQENIHMLSEEKQRIMLLERTLQLKEEENKRLNQRLMSQSMSSVSSRHSEKIAIRDFQVGDLVLIILDERHDNYVLFTVSPTLYFLHSESLPALDLKPGEGASGASRRPWVLGKVMEKEYCQAKKAQNRFKVPLGTKFYRVKAVSWNKKV
chain 2: MEETIKDPPTSAVLLDHCHFSQVIFNSVEKFYIPGGDVTCHYTFTQHFIPRRKDWIGIFRVGWKTTREYYTFMWVTLPIDLNNKSAKQQEVQFKAYYLPKDDEYYQFCYVDEDGVVRGASIPFQFRPENEEDILVVTTQGEVEEIEQHNKELCKENQELKDSCISLQKQNSDMQAELQKKQEELETLQSINKKLELKVKEQKDYWETELLQLKEQNQKMSSENEKMGIRVDQLQAQLSTQEKEMEKLVQGDQDKTEQLEQLKKENDHLFLSLTEQRKDQKKLEQTVEQMKQNETTAMKKQQELMDENFDLSKRLSENEIICNALQRQKERLEGENDLLKRENSRLLSYMGLDFNSLPYQVPTSDEGGARQNPGLAYGNPYSGIQESSSPSPLSIKKCPICKADDICDHTLEQQQMQPLCFNCPICDKIFPATEKQIFEDHVFCHSL
B2: FIP200ΔN1115:Luciferase [human] / GST:NAP1aa5–75 [human] (parent complex)
chain 1: B1 chain 1
chain 2: VEDDICILNHEKAHKRDTVTPVSIYSGDESVASHFALVTAYEDIKKRLKDSEKENSLLKKRIRFLEEKLIA

One assay covers variants of B1. Kind of assay: LUMIER assay; HEK293ET cell lysates; bacterially expressed GST bait; read off a plot.
Consider chain 1 N457S, for which the response is around 15 fold binding.
On the same count and under the same terms, then chain 1 L353A, with around 32 fold binding.
As to chain 1 E348A, the response was around 49 fold binding.
Still for that read-out and setting: in the case of chain 1 A452S it was around 22 fold binding.
chain 1 L351A: the response is around 38 fold binding.
Turning to chain 1 L347A, the response is around 42 fold binding.
Same read-out and setting: then chain 1 V461S, with around 50 fold binding.
Still for that read-out and setting: then chain 1 Q352A, with around 44 fold binding; and chain 1 T350A, with around 51 fold binding; and chain 1 R349A, with around 33 fold binding.
With chain 1 F459S, the response is around 52 fold binding.

In the next assay the parent is B2. Kind of assay: LUMIER assay; HEK293ET cell lysates; read off a plot.
chain 1 N457S: the response was around 1.4 fold binding.
As to chain 1 V461S, the response is around 1.7 fold binding.
Consider chain 1 F459S, for which the response is around 1.4 fold binding.
Take chain 1 A452S: the response was around 12 fold binding.
